From the DeepSol protein solubility set

Assay: soluble on expression in E. coli; label from the status in PepcDB or PDB records

Soluble on expression in E. coli, not soluble:
MFKSQTAILPEAGPFALYTLLKVRQNHAHVLQALKALPALVEEINQNQPGAELTVSVAFSKGFWSHFEMASPPELIDFPELGEGETHAPSTDVDVLIHCHATRHDLLFYTLRKGISDIAQDIEIVDETYGFRYLDARDMTGFIDGTENPKAEKRAEVALVADGDFAGGSYVMVQRFVHNLPAWNRLNLAAQEKVIGRTKPDSVELENVPAASHVGRVDIKEEGKGLKIVRHSLPYGSVSGDHGLLFIAYCHTLHNFKTMLESMYGVTDGKTDQLLRFTKAVTGAYFFAPSQVMLQELTLKNQ
MDGFDASPKAIAARRAKVFDPVGGYEYFVNTYFPHYIRSPEKSELHAFLFSRLPEIIRSPKGENEAVGAPRGEGKSTKVTQLFTLWCIVTGQKHYAVIVMDSIDQAYPMLEAIKAELEFNPRLKTDFPEVCGQGRVWQAGTIVTANDVKVQVAGSGKKLRGLRHGPYRPDLTVLDDIENDEQVRNPEQRDKLNAWLTKTVLPLGGVGQKYDVIYIGTILHYDSVLNRTLNNPFWHGIKFKAMKRWPDRMDLWDRWEELFRNDGETVAEAFYQANKDEMERGAVTSWAARGVLALMKIRARDGHATFDSEYQNDPVSGEDAPFAKSMKFWNDLPSDLVYFGALDPSLGKAGASRDPSAIIIGGYQRVTGKLYVVEAQIKKRLPDLIIEDVIRLHRQYRCKLWFVETVQFQEFLKDELVKRSAARGIPVPARAVKPVSDKLLRIETLQPHMANGLILLNESQQTLIQQFRHFPKADHDDGPDAVHMLWSGAVANCVPIEWQSPTDNDFDDEIKSKWSR
MSTQMSVFLSTQAAQPQWGEKALISFAEQGATIHLQQTQDFSAIQRAARKLDNQGIRTAFLAGEGWDLESIWAFYQGYRDAKKRNTVEWKALAAAEQVELEARIKATDWTRDIINKSAEEVAPRQLATMAAEFIKSLAPDHVSYRIVKDKDLLTEGWEGIYAVGRGSERTSAMLQLDYNPTGDENAPVFACLVGKGITFDSGGYSLKPSNMMSAMKADMGGSGMITGALGLAIMRGFNKRVKLILCCAENMVSGRALKLGDIITYKNGKTVEIMNTDAEGRLVLADGLIYASEQKPQLIIDCATLTGAAKNALGNDYHALLSYDESLSQQALAAAKEENEALWALPLAEFHREMLPSNFADLSNISNGDYTPGASTAAAFLSYFVEGYQKGWLHFDCSATYRKSASDKWAAGATGMGVKMLARILMQQA
MIMICPGCSCLCDDIYIKDGKVFNACRRGEEIFAKYNENRAVARVDGKEVDVDTAIEKAIEILKDAKNPAIYGLDTTVVEAQSLAIEVAEKLNGYIDDNSSFCLGELVEAVLKGEIPTTTLDEVRDNAYVLVYWGTNPYHSLSRHMSKYTYYPRGKRRPRGYDEDRYLVVVDVRKSETAKLAKKNAKFIQVESDAELVDSFMKVVDGKAAKYAKEAGAIITEMKKADFNVIFGGLGLKYGLKDLNMFKEMVKKLNEVAKVYFIPAGFHGNMRGFNETLFEKVGYVNKYSFRDGKSGEEFAFTELLKNEKIDAALIVGTDPVYSLPFDVSSKLGKVKTIVIDPRMSFTARIADVVIPSAISGIEAGGTMVRSDGVRVMLEPLEEKEVNDVYILQRIKEGL
MGSDKIHHHHHHMIKAIALLRRKQGLSREQFIAYYETRHAPLIRSLLPGIEDYRRNYVDRTGAFESGIAAIDFDSVTEMRFASRASYDAFLAQAADPEIARLIADDEENVFDRSATRMFVVDETPAALSPDTPSPVLIDELLAERAIRDGLARFARVLDAKAWDALGDVFAADLTFDYGLGEQVGLEALTVNMRRFLDVCGPSQHLIGSIMITVDPGLQSATSRAYVRARHQRAGNSGGPVFDSNGEYVDRWECRAEGWRIVRRDALWQTQSGEAAIIWDGSPAAG
MGSDKIHHHHHHMRYIDLAEMCIADISSGKLVKNSRMPSLRNFRQQHSISMTTALNCYQYLESLGWILARPQSGYFVCGQRMANEKPELVAFKSIMTDPKLPVVKPYYQHGNSSACAIDSAHNTSANHSVYQPANKDIVGPLGVARISTDFIPLDKLQNSFRRALKRQGSNISFYPDIQGEKILRDTLSSHFKSYDFHIPSDELLITNGCMDAIQTAIEICTDFGDAVAISSPCFNGILDMLAALGRKVVEIPSTEQGIDLVQLEQHMKSNQIKAGLFCTSHMNPQGISMTALQKQHLVNLAQTYKIPIIEDDVYIELAHGKVMPLPAKHWDKHGYILWCGSVSKTIAAGYRLGWCWPGRFTEQYLQKRKYCNQGVSSPVQLGLADFISNGDYAKHLKKLRVAIQQHTLSYQRYLTKNLPVASKISDPSGGFVLWIQVPNLNGRKLLALATEGNIDIRIGEQFSTRDLYQDYFRVNTGFMITEGNDKDTREEVDSQINKLMKLVKVASSERI
MDFKASGTKFKKTGKKVVPAKAFEEIVQTNRDVLKKSAFLSDLLENLQPHLNNIKKIRCVAIGNFKEDFPATYQFALLLEITDYIKSEDERDVVVSLYDPIFTKEEIQYLKSLGSKWLIEEEFSENDAIDYESVLYFLPHAPLDLTENILSSQRPHLWLANNMISHTDRYTKAKLCENYPNLSKLVHYLQTNAPPEVKKAHDVDGFATFIPKRKRKNRNNSSKLKVTPSDIDYDSIAPKFKSCQILTDFDEGKYLKEKPWINSFSDLTLHAIEY
MARLSGILADSDIQALIDNNFLKALWPFDAAQIQPASLDLRLGEKAYRIRASFMPGADVRVLDKLERLKLHEFDLRDGAVLETGCVYIVPLLENLALPEILSAIANPKSSTGRLDIFTRVITDNAQEFDKICVGYHGPLYLEISPRTFPILVRTGSRLFQLRFRKGHSYLNEIELHALHRDETLISDDLPNISAGGIGLSINLKGDENGLVGYRGKRHTSVIDIDKHAVANILDFWEPLFDRGQRELILDPDEFYILVSRESVHVPPLYAAEMTPFDPLVGEFRVHYAGFFDPGFGHMEAGGKGARAVLEVRSHEVPFILEHGQIIGRLVYEQMLKRPLALYGEDSGSHYQAQGLKLSKHFR

Soluble on expression in E. coli, soluble:
MGHHHHHHSHMQNEKETMQSLNDRLASYLDRVRSLETENRRLESKIREHLEKKGPQVRDWSHYFKIIEDLRAQIFANTVDNARIVLQIDNARLAADDFRVKYETELAMRQSVENDIHGLRKVIDDTNITRLQLETEIEALKEELLFMKKNHEEEVKGLQAQIASSGLTVEVDAPKSQDLAKIMADIRAQYDELARKNREELDKYWSQQIEESTTVVTTQSAEVGAAETTLTELRRTVQSLEIDLDSMRNLKASLENSLREVEARYALQMEQLNGILLHLESELAQTRAEGQRQAQEYEALLNIKVKLEAEIATYRRLLEDGEDFNLGDALDSSNSMQTIQKTTTRRIVDGKVVSETNDTKVLRH
GPGSMALVHTTYPQCLSLVEADTAEAEVQQALEDGANTLYFSHHFNYTDVPPSIAALREQLEVLHIDNNYPFTTISPRVTALTNLRWLNASYCSLRSVDSSISRLSKLERLTLNNNMLTWLPLDVWQLKALEELHIDNNQLNVLPGCLLFLPRLRVLTLENNPLYTHEEVNGAAAATYIPVQCSVDCSACCIRSRNYKVFVTFHTIVGHSDVPFVHVVCSDECAVHVRSRLEAYDRAHANQP
GPQDPYEINLMEELTLKGVTQYYAYVTERQKVHCLNTLFSRLQINQSIIFCNSSQRVELLAKKISQLGYSCFYIHAKMRQEHRNRVFHDFRNGLCRNLVCTDLFTRGIDIQAVNVVINFDFPKLAETYLHRIGRSGRFGHLGLAINLITYDDRFNLKSIEEQLGTEIKPIPSNIDKSLYVAEYHSEPVEDEKP
MNIQCKRVYDPAEQSDGYRILVDRLWPRGIKKTDLALDEWDKEITPSTELRKAFHGEVVDYATFREQYLAELAQHEQEGKRLADIAKKQPLTLLYSAKNTTQNHALVLADWLRSL
MASWSHPQFEKGAETAVPNSSSVPGDPSSMTRKNVLLIVVDQWRADFIPHLMRAEGREPFLKTPNLDRLCREGLTFRNHVTTCVPGGPARASLLTGLYLMNHRAVQNTVPLDQRHLNLGKALRAIGYDPALIGYTTTTPDPRTTSARDPRFTVLGDIMDGFRSVGAFEPNMEGYFGWVAQNGFELPENREDIWLPEGEHSVPGATDKPSRIPKEFSDSTFFTERALTYLKGRDGKPFFLHLGYYRPHPPFVASAPYHAMYKAEDMPAPIRAENPDAEAAQHPLMKHYIDHIRRGSFFHGAEGSGATLDEGEIRQMRATYCGLITEIDDCLGRVFAYLDETGQWDDTLIIFTSDHGEQLGDHHLLGKIGYNAESFRIPLVIKDAGQNRHAGQIEEGFSESIDVMPTILEWLGGETPRACDGRSLLPFLAEGKPSDWRTELHYEFDFRDVFYDQPQNSVQLSQDDCSLCVIEDENYKYVHFAALPPLFFDLKADPHEFSNLAGDPAYAALVRDYAQKALSWRLSHADRTLTHYRSSPQGLTTRNH
